The numbers were not newly measured in publication PMC6504839, which cites them from elsewhere.

Read-outs that look alike come from different tables or passages of the source.

Data set [1] has as its target integrin αIIbβ3 (Homo sapiens) (UniProt P08514).
Data set [2] shares this target. The source holds these as a separate data set.

The term Kd denotes the free concentration of one partner at which half of the binding sites on the other are occupied at equilibrium, for simple one-to-one binding. As for Disagregin (from UniProt P36235), in data set [1], the Kd was 40 nM. Savignygrin (from UniProt Q8MVZ3): the Kd in data set [2] was 60 nM.
